Data on one substance can be found in publication PMC8111768.

For test [1], the target named is VIC16 REFORMab SDIEALGA (G236A/S239D/A330L/I332E) (mouse | human). As to the kind of experiment: SPR. In general terms: Surface plasmon resonance follows binding to a sensor surface in real time, without labels.
Test [2] has as its target VIC16 REFORMab EFTEA (G236A/S267E/H268F/S324T/I332E) (mouse | human). As to the kind of experiment: SPR.

recombinant human FcγR3B, sequence (O75015 17-200): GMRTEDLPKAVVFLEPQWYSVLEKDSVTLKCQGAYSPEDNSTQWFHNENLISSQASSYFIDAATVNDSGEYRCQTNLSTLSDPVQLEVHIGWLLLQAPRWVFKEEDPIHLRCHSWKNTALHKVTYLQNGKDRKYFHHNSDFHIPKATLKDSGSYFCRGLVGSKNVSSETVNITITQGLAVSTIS

“recombinant human FcγR3B (from UniProt O75015 17-200) (receptor)”: the equilibrium dissociation constant (Kd) in test [1] stood at 3.2 µM; in test [2] it was 475 µM.

In general, Kd refers to the constant that tells how readily two partners part at equilibrium.
